In PMC12421854 one finds stoichiometry N data, which are given here for 1 substance.

For assay [1], the target named is ForJ (Streptomyces formicae). Nature of the assay: mass photometry; ReFeyn mass photometry of purified ForJ reduced with TCEP; monomers to dimer.
Assay [2] has as its target ForJ (Streptomyces formicae). In words: non-reducing SDS-PAGE; purified ForJ exposed to increasing H2O2; no beta-mercaptoethanol and no boiling before loading; dimers to dimer of dimers.
For assay [3], the target named is ForJ (Streptomyces formicae). Nature of the assay: non-reducing SDS-PAGE; purified ForJ exposed to increasing DTT; no beta-mercaptoethanol and no boiling before loading; monomers and dimers.
Assay [4] addresses ForJ (Streptomyces formicae). In words: mass photometry; ReFeyn mass photometry of purified ForJ without reducing agent (oxidized); 38 kDa and 76 kDa states both present; dimers to dimer of dimers.

As a reminder, the stoichiometry N is a count of units in the complex or per binding partner. Turning to ForJ (natural protein), the stoichiometry N amounted to 2 in assay [1], 4 in assay [2], 2 in assay [3] and 4 in assay [4].
